Broadly, the MIC is the least concentration at which growth counts as inhibited. Read a low MIC as inhibition by little substance.

Several values for one entry are separate records, joined by “and”; a condition that tells them apart may be missing. Identical values can stand only once.

Common to all, as to format: cell-based
In assay [1] the test system is B. subtilis BGSC 1A1276. In words: Growth reduction of B. subtilis culture (OD600 / BacTiter-Glo). The method, then:
(§1) For MIC determination of bacterial cultures, E. coli ATCC 8739, DH5-alpha, DH10-beta, and B. subtilis BGSC 1A1276 was grown overnight (16-18 hours) in LB broth at 37° C. The following day, the cell density of the saturated cultures was calculated using OD600 and cultures were diluted to 10^4 to 10^6 CFU/mL in sterile LB media to generate the inoculum, and 90 μL of the inoculum was combined with 10 μL of serially diluted Tgase SEQ ID NO:1 at a range of 0.0001-0.01 weight percent in the presence or absence of 0.003% lysozyme (100-fold lower than the effective concentration). Growth curves were measured by OD600 on a BioTek® Synergy Plate Reader. Optionally, the following day, a cell viability assay such as BacTiter-Glo™ (Promega®) following manufacturer's protocols) could be used to assess cell viability. A decrease in OD600 or luminescence indicated a decrease in cell viability. Results are presented as a percent reduction in cell count relative to an untreated culture. All test conditions were performed in triplicate.
Yeast or bacterial starter cultures were grown as described previously. Tgase (SEQ ID NO:6) was added to each culture at 0.001-1 weight percent. The cultures were grown overnight at 30° C.-37° C. and growth curves were measured by a BioTek® Synergy Plate Reader.

The test system of assay [2] is E. coli ATCC 8739. As to the kind of experiment: Growth inhibition of E. coli culture in LB (OD600 / BacTiter-Glo). As to conditions: E. coli ATCC 8739; 950 μg/mL. The method, then: as §1
E. coli ATCC 8739 was grown overnight in LB broth at 37° C. The following day, the cell density of the saturated cultures was calculated using OD600 and cultures were diluted to 10^4 to 10^6 CFU/mL in sterile LB media to generate the inoculum, and 90 μL of the inoculum was combined with 10 μL of serially diluted Tgase SEQ ID NO:6 at a range of 0.001-0.1 weight percent in the presence or absence of chemical preservatives at concentrations above and below the calculated MIC value. A single concentration (at the MIC) of the chemical preservative and static concentrations of Tgase SEQ ID NO:6 (400 μg/mL, 0.04% w/v) are presented in Table 8 as representative examples. Growth curves were measured by OD600 on a BioTek® Synergy Plate Reader and a cell viability assay (BacTiter-Glo™, Promega®, following manufacturer's protocols) was used to assess cell viability. A decrease in OD600 or luminescence indicated a decrease in cell viability. Results are presented as a percent reduction in cell count relative to an untreated culture. […]

A further assay relates to S. aureus ATCC 6538. As to the kind of experiment: MIC determination, S. aureus. Conditions: CAMHB pH 7.3, 37° C., 18 to 20 hours, duplicate. The method, then: (§2) A variant form of Streptomyces mobaraensis transglutaminase having the amino acid sequence depicted in SEQ ID NO:6 was prepared by literature methods with a hexa-his-tag to aid in purification (Javitt, et al. (2017) BMC Biotechnol. 17:23). The cells were grown in shake flasks, lysed by homogenization, and the Tgase variant (SEQ ID NO:6) was isolated from the cell debris by centrifugation. The resulting semi-purified enzyme (clarified lysate) were compared on an SDS-PAGE gel, by spectroscopy, and activity for concentration of active enzyme. The Tgase variant (SEQ ID NO:6) was further purified by affinity column on a Ni-IMAC resin prior to MIC assay. Tgase activity was measured in the examples herein using a colorimetric hydroxamate activity assay (Folk and Cole (1965) J Biol Chemistry 240(7):2951-2960). The enzyme was diluted to a working stock concentration of 2 mg/mL in CAMHB or RPMI media (bacterial or fungal media). This was then 2-fold serial diluted ten times in the appropriate media in a 96-well master plate to generate 2× starting concentrations for MIC testing.
(§3) Strains were acquired from the American Type Culture Collection (ATCC) (Manassas, VA) and maintained as −80° C. frozen glycerol stocks: S. aureus ATCC 6538, E. coli ATCC 8739, P. aeruginosa ATCC 9027, C. albicans ATCC 10231, and A. brasiliensis ATCC 16404. […]

The next assay concerns P. aeruginosa ATCC 9027. In words: MIC determination, P. aeruginosa. Conditions: CAMHB pH 7.3, 37° C., 18 to 20 hours, duplicate. The method, then:
as §2
(§4) Strains were acquired from the American Type Culture Collection (ATCC) (Manassas, VA) and maintained as −80° C. frozen glycerol stocks: S. aureus ATCC 6538, E. coli ATCC 8739, P. aeruginosa ATCC 9027, C. albicans ATCC 10231, and A. brasiliensis ATCC 16404. B. subtilis BGSC 1A1276 was purchased from the Bacillus Genetic Stock Center (BGSC) (Columbus, OH) and maintained as −80° C. frozen glycerol stock. Cation-adjusted Mueller-Hinton broth (CAMHB) at pH 7.3 was used for testing with bacterial species (unless otherwise noted), while RPMI 1640 media buffered with 0.165 M MOPS at pH 7.0 was used for testing with all fungal species.
For MIC determination, bacterial strains (S. aureus ATCC 6538, E. coli ATCC 8739, P. aeruginosa ATCC 9027) were grown overnight on Tryptic Soy Agar (TSA) plates at 37° C. A few colonies of each strain were collected with a sterile swab and used to make a McFarland 0.5 standard solution (approximately 1×10^8 CFU/mL) in sterile PBS. […]

In assay [3] the test system is E. coli ATCC 8739. As to the kind of experiment: MIC determination, E. coli. As to conditions: CAMHB pH 7.3, 37° C., 18 to 20 hours, duplicate. The method, then: as §2, §4
For MIC determination, bacterial strains (S. aureus ATCC 6538, E. coli ATCC 8739, P. aeruginosa ATCC 9027) were grown overnight on Tryptic Soy Agar (TSA) plates at 37° C. A few colonies of each strain were collected with a sterile swab and used to make a McFarland 0.5 standard solution (approximately 1×10^8 CFU/mL) in sterile PBS. The McFarland solution was then diluted 1:100 in CAMHB to generate the inoculum, and 50 μL of this inoculum was combined with 50 μL of the 2× test article in a 96-well plate for a final concentration of 1×. All test conditions were performed in duplicate. The bacterial-strain MIC 96-well plates were incubated at 37° C. for 18 to 20 hours. MIC is defined as the lowest concentration of a compound in which no visible growth is observed.

The subject of assay [4] is B. subtilis BGSC 1A1276. In words: MIC determination, B. subtilis. Conditions: duplicate, listed as Tgase variant (SEQ ID NO: 6). The method, then:
as §2, §3

For assay [5], the system named is C. parapsilosis ATCC 22019. In words: MIC determination, C. parapsilosis. Conditions: duplicate, listed as Tgase variant (SEQ ID NO: 6).

B1: Tgase (SEQ ID NO: 6): variant Streptomyces mobaraensis transglutaminase (SEQ ID NO:2) with N-terminal Methionine, C-terminal peptide linker and hexa-His-Tag (protein)
chain: MDPDDRVTPPAEPLDRMPDPYRPSYGRAETVVNNYIRKWQQVYSHRDGRKQQMTEEQREWLSYGCVGVTWVNSGQYPTNRLAFASFDEDRFKNELKNGRPRSGETRAEFEGRVAKESFDEEKGFQRAREVASVMNRALENAHDESAYLDNLKKELANGNDALRNEDARSPFYSALRNTPSFKERNGGNHDPSRMKAVIYSKHFWSGQDRSSSADKRKYGDPDAFRPAPGTGLVDMSRDRNIPRSPTSPGEGFVNFDYGWFGAQTEADADKTVWTHGNHYHAPNGSLGAMHVYESKFRNWSEGYSDFDRGAYVITFIPKSWNTAPDKVKQGWPLEHHHHHH
In the case of B1, the “Fold improvement in enzyme efficacy” value with B. subtilis BGSC 1A1276 [1] (Tgase (SEQ ID NO: 1) alone = 1) is recorded as 12. Further, in the assay on B. subtilis BGSC 1A1276 [1] (enzyme concentration 80 ug/mL), the “Percent Growth Reduction” value was found to be 99.77%. For the same molecule, the growth inhibition with E. coli ATCC 8739 [2] came to 85.0%. For the same molecule, the MIC is >1,000 μg/mL against S. aureus ATCC 6538; >1,000 μg/mL in the assay on P. aeruginosa ATCC 9027; >1,000 μg/mL against E. coli ATCC 8739 [3]; 80 µg/mL and 120 µg/mL in the assay on B. subtilis BGSC 1A1276 [4]; 250 µg/mL and 125 µg/mL in assay [5].

The values above are taken from patent US20230329245A1, “COMPOSITIONS AND METHODS OF USE THEREOF” (Curie Co. Inc., priority 2020, published 2023).
